# Reference: publication PMC6127294, “Jungle Express is a versatile repressor system for tight transcriptional control” (Nature Communications, 2018)
# B1: EilR (natural protein, Enterobacter lignolyticus)
# chain: MGYLNREERRETIMQAAMRVALDQGFTGMTVRNIATAAGVAAGQVHHHFTSSGELKSQAFIRVIREMMDLQRLSRTAGWREQLFSALGSEDGRLEPYIRLWRQAQLLADSDPEIKSAYLLTMNLWHDEAVRIIRAGHAAGEFTLRDSAENIAWRLISLVCGLDGIYVLGMPEVDDAAFTRHLQHVIQLELFS
# modifications: selenomethionine-labeled protein for the EilR-eilO crystal structure
# notes: 21.6 kDa monomer; also called EilR repressor; EilR-His8 (before cleavage of the tag); source: E. coli harboring pLane-eilR, purified (His-Trap, TEV cleavage, second His-Trap flowthrough)
# Biological target: the molecule itself
# Experiment: crystal structure; EilR (selenomethionine-labeled) in complex with the duplexed eilOc operator oligonucleotide, 2:1 protein:DNA molar ratio; 0.1 M Li2SO4, 0.1 M MgCl2, 0.1 M HEPES pH 7.5, 20% PEG 3350, 10% hexanediol
protein,measurement,value
B1,stoichiometry N,2
